Here are results for one molecule from paper PMC5812274 (Science signaling, 2017).

The experiment concerns the target large-conductance Ca2+-activated potassium (BK) channel pore-forming α subunit (rat (endogenous in cerebral artery …, UniProt Q62976 1-1209)). Nature of the experiment: FRET or BRET. A general note: BRET reads energy transfer from a luciferase to a nearby fluorophore.

large-conductance Ca2+-activated potassium (BK) channel pore-forming α subunit (rat, sequence (Q62976 whole entry): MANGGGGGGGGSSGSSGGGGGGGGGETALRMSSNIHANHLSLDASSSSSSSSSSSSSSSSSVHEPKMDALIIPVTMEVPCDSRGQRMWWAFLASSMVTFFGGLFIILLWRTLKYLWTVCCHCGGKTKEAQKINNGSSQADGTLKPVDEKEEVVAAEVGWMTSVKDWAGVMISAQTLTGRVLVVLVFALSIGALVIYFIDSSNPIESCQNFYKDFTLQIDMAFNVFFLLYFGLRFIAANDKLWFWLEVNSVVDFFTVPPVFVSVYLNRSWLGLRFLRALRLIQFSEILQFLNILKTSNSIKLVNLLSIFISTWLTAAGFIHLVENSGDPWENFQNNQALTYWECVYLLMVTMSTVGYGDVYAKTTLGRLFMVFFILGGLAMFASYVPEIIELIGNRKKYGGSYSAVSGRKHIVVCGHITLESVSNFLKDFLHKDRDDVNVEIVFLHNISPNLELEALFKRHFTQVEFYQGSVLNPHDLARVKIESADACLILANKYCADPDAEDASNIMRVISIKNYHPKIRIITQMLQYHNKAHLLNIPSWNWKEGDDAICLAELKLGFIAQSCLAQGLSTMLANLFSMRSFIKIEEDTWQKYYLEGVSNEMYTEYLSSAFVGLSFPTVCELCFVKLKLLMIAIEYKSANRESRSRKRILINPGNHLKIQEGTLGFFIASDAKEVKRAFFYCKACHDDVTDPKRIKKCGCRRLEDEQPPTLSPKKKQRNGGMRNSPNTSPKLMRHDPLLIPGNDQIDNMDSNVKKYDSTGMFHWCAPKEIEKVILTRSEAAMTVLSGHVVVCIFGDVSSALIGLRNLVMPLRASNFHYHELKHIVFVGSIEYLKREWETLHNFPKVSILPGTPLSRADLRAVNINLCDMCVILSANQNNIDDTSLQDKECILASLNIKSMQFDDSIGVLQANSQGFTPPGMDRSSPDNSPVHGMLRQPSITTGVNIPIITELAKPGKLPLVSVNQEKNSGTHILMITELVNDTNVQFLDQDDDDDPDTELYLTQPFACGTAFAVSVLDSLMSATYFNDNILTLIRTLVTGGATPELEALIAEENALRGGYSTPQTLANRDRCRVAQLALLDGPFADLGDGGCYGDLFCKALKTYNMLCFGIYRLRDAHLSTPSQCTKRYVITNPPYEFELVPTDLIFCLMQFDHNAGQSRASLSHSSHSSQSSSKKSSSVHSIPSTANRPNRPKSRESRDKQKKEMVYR

B1: BK channel auxiliary β1 subunit (natural protein, UniProt P97678 1-191, looked up)
chain: MGKKLVMAQKRGETRALCLGVAMVVCAAITYYILGTTVLPLYQKSVWTQESTCHLVETNIKDQEELEGRKVPQYPCLWVNVSAVGRWAMLYHTEDTRDQNQQCSYIPRNLDNYQTALVDVKKVRANFYKHHNFYCFSAPQVNETSVVYQRLYGPQILLFSFFWPTFLLTGGLLIIAMVKLNRSLSVLAAQK
In the case of B1, the “fold increase of normalized FRET, 60 mM K+ against 6 mM K+” value was roughly 3.4 fold.
